This passage reports EC50 results from patent US20100093980A1 (Biogen, published 2010).

Numbering of substitutions follows the chain as printed.

The chains are these.
B1: Chimeric HP1/2 Fab (murine VH and VL domains) (Fab, V domains shown)
VH: EVQLQQSGAELVKPGASVKLSCTASGFNIKDTYMHWVKQRPEQGLEWIGRIDPASGDTKYDPKFQVKATITADTSSNTAWLQLSSLTSEDTAVYYCADGMWVSTGYALDFWGQGTTVTVSS
VL: SIVMTQTPKFLLVSAGDRVTITCKASQSVTNDVAWYQQKPGQSPKLLIYYASNRYTGVPDRFTGSGYGTDFTFTISTVQAEDLAVYFCQQDYSSPYTFGGGTKLEIK
notes: Fab fragment; Constant parts (CH1, CL) are not specified; detection was with goat anti-human IgG HRP conjugate; also called chimeric Fab
B2: Humanized HP1/2 Fab V24A_T32V (Fab, V domains shown)
VH: EVQLVQSGAEVKKPGATVKISCKASGFNIKDVYMHWVQQAPGKGLEWMGRIDPASGDTKYDPKFQVRVTITADTSTDTAYMELSSLRSEDTAVYYCATGMWVSTGYALDFWGQGTLVTVSS
VL: DIVMTQSPDSLAVSLGERATINCKASQSVTNDVAWYQQKPGQPPKLLIYYASNRYTGVPDRFSGSGSGTDFTLTISSLQAEDVAVYYCQQDYSSPYTFGQGTKVEIK
notes: Fab fragment; Constant parts are not specified
B3: Humanized HP1/2 Fab V24F_T32V (Fab, V domains shown)
VH: B2 VH with A24F
VL: B2 VL
notes: as for B2
B4: HP1/2 Fab, straight CDR graft (VH CDR graft paired with VL CDR graft) (Fab, V domains shown)
VH: B2 VH with A24V, V32T
VL: B2 VL
notes: as for B2
B5: Humanized HP1/2 Fab F27Y_T32V_M96L (VH SEQ ID NO: 25) (Fab, V domains shown)
VH: B2 VH with A24V, F27K, M100L
VL: B2 VL
notes: as for B2
B6: Humanized HP1/2 Fab V24S_F27Y_T32V (Fab, V domains shown)
VH: B2 VH with A24S, F27Y
VL: B2 VL
notes: as for B2

T1 sequence (P13612 34-1032, form in doubt, chain 1 of 2): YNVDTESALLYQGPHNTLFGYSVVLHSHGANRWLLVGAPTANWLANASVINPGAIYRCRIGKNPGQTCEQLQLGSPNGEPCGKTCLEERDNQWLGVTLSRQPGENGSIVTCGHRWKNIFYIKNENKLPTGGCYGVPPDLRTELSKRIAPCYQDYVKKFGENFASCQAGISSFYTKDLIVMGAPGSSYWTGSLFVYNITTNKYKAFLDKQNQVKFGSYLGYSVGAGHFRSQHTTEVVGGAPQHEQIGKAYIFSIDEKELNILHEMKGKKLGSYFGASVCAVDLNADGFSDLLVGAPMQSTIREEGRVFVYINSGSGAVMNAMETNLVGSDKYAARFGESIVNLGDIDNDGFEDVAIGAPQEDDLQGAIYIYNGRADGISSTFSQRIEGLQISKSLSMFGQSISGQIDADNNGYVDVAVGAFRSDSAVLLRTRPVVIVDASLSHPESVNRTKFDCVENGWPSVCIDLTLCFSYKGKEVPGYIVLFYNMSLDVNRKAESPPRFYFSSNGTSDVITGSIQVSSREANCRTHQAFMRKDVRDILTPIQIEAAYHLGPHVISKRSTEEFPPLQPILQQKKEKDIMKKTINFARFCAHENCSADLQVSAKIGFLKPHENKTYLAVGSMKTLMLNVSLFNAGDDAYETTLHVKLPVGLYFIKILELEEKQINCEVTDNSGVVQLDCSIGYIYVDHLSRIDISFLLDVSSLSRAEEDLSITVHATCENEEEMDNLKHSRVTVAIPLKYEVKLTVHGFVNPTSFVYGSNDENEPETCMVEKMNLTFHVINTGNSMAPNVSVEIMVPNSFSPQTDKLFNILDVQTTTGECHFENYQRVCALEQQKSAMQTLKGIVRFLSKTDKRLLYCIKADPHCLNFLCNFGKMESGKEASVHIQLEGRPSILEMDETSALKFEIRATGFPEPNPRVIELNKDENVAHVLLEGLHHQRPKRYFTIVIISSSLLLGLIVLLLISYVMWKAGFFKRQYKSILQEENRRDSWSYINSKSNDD
T1 sequence (P05556 21-798, form in doubt, chain 2 of 2): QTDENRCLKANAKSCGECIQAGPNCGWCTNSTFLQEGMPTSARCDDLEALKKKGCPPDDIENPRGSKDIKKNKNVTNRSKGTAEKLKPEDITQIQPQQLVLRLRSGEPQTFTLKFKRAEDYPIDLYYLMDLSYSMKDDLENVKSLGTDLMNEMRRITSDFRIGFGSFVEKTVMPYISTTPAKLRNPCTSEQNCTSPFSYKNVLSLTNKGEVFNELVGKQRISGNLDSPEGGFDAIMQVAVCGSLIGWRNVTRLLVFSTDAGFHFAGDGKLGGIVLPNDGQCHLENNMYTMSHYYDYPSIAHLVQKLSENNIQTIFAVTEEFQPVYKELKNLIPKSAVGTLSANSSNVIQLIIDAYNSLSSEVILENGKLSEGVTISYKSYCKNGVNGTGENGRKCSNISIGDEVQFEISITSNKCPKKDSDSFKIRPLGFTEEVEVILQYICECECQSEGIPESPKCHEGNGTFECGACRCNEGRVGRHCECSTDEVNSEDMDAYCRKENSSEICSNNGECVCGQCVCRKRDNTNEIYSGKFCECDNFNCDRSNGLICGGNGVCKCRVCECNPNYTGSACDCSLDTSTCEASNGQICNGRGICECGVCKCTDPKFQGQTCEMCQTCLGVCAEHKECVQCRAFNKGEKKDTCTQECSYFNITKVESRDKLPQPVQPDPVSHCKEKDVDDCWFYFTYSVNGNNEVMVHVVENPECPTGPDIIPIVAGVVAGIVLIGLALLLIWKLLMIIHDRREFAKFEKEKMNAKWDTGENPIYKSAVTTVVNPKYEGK

This experiment addresses T1, purified α4β1 VLA4 integrin (UniProt P13612 34-1032; P05556 21-798).
T1 construct: Purified VLA4 coated on the plate at 1 ug/ml; also called α4β1 integrin
As to the kind of experiment: ELISA, Fab on plate-coated purified VLA4, goat anti-human IgG HRP detection. The procedure: In this assay, 1 ug/ml of purified VLA4 (in 50 mM NaHCO₃ buffer (pH 9.2) containing 10 ug/ml BSA) was coated on a 96-well (100 ul/well) Corning Easy-wash plate and incubated overnight at 4° C. Following incubation, the plate was blocked with 150 ul/well of blocking buffer (50 mM Tris-HCl pH7.5, 150 mM NaCl and 2% Dry Milk) for 60 minutes at room temperature. The plated was then washed four times with TBS Washing buffer (50 mM Tris-HCl pH 7.5, 150 mM NaCl, 0.05% Tween-20). Dilutions of each HP1/2 Fab to be tested were prepared in binding buffer (TBS buffer containing 2% Dry Milk) and 100 ul of each dilution was added to the designated wells (100 ul of TBS assay buffer was used as blank control). The plate was then incubated for 60 minutes at room temperature, and then washed four times with TBS Washing buffer. The detection antibody (goat anti-human IgG HRP conjugate) was added at 100 ul/well and the plated was again incubated at room temperature for 60 minutes and washed four times with TBS Washing buffer beforeadding 100 ul/well HRP Substrate buffer and incubating another 30-60 minutes. To stop the reaction, 100 ul of 1 NH2SO4 was added to each well. The plate was read in a Molecular Devices ELISA plate reader at […], and the data was analyzed using Softmax software and EC50 values calculated by GraphPad Prism 4. The EC50 values observed for the test Fab fragments with VH and VL domains are tabulated in […]
In general terms: An ELISA detects its analyte on a solid surface through an enzyme-linked reagent.
By EC50 is commonly meant the concentration needed to bring the measured effect to its halfway point. Higher therefore signals weaker potency. B1: the EC50 is 52 pM.

Regarding B2, the EC50 amounted to 66 pM. The EC50 values of the last two molecules are within 1.5-fold of each other.

The molecule B3 gave an EC50 of 130 pM.

In the case of B4, the EC50 stood at 1100 pM.

As for B5, the EC50 worked out at 140 pM.

For B6, the EC50 stood at 32 pM.
